Assay [1] deals with T1, recombinant mouse CD28 (Mus musculus, UniProt P31041).
T1 construct: ELISA assay on increasing concentrations of mouse sCD28; purchased R&D 483-CD
As to the kind of experiment: Direct ELISA on recombinant mouse CD28. Type of assay: binding.

The subject of assay [2] is isolated CD3 human T cells. Description: CD3 T cells stimulation with anti-CD3 OKT3, IFN gamma secretion. The note with it: anti-CD3 stimulation; CD28.2 2.0 μg/mL, antibodies 0.1-10 μg/mL. Type of assay: cell-based. How it is done: T cells stimulation with OKT3—0.1×10^6 isolated CD3 T cells (from healthy donors) were stimulated with indicated amount of anti-CD3 clone OKT3 for 48-72 hr at 37° C. When stated recombinant human CD80-Fc (2 μg/mL, R&D system) was added in soluble form. Antibodies to CD28 or controls were added at the indicated concentration in soluble form.
CD80 is one of the two main ligands for mCD28 along with CD86. The extracellular domain of CD80 fused to an Fc moiety has been used as an immune stimulatory molecule and is under investigation as a cancer therapy. In order to examine the effect of sCD28 on CD80-Fc efficacy, isolated CD3 human T cells were stimulated with plate bound anti-CD3 antibody (OKT3, 2 μg/mL) in the presence of 2 μg/mL soluble recombinant human CD80-Fc.

Assay [3] addresses T2, recombinant human CD28 (Homo sapiens, UniProt P10747).
T2 construct: recombinant human CD28 lacking the transmembrane and cytoplasmic domains; purchased R&D 342-CD
Description: Direct CD28 ELISA on recombinant human CD28. Type of assay: binding. Background: ELISA stands for enzyme-linked immunosorbent assay.

The target of assay [4] is T3, mCD28 (Homo sapiens, UniProt P10747).
T3 construct: expressed in transfected cells
Description: FACS binding to mCD28 on naïve CD3 T cells. Conditions: antibody 20 μg/mL. Here is the method: Flow Cytometry—Generally, cells were kept on ice during all steps. Prior to staining, 5×10^5 cells were blocked with 50 μg/mL human IgG (Sigma, Cat. No. 14506) in FACS buffer (PBS with 0.1% BSA) for 15 min. Antibodies were used at concentrations recommended by the manufacturer and incubated for 30 min. in the dark. Incubations were done in a volume of 100 μL in 96-well U bottom plates. Cells were washed twice with 200 μL of FACS buffer and transferred to FACS tubes in 150 μL of FACS buffer for analysis. Cells were analyzed on a Gallios Flow Cytometer (Beckman Coulter) using the Kaluza for Gallios Flow Cytometry Acquisition Software.
Lastly, the ability of antibodies #1-3 to bind to mCD28 at all was examined. While it is not essential that a sCD28 antibody not bind mCD28 it is advantageous. Such an antibody could be used for specific detection of the soluble protein, and if used therapeutically would have no effect on the membranal form. Naïve isolated CD3 T cells were evaluated by FACs to assay mCD28 binding. Cells were incubated with antibodies #1-3 (20 μg/mL dark grey histograms) or isotype controls (mIgG, 20 μg/mL, light grey histograms). Binding detection was performed with Alexa Fluor 647-conjugated goat anti mouse secondary antibody.
(In general: In flow cytometry, cells or beads pass a laser one at a time.)

The test system of assay [5] is sCD28. As to the kind of experiment: Simulated sweeping of soluble CD28 from plasma with antibody coated magnetic beads. Further details: species or system human. The note with it: cancer patient plasma; 0.125-2 μg antibody on beads; 37° C. 2 hours. How it is done: Simulated sweeping of soluble CD28 from plasma of cancer patient. Antibodies or recombinant proteins were coated on tosyl-activated magnetic beads (Invitrogen, Cat. No. DY-14203) as described by manufacturer protocol. […] The mixture was incubated in a thermomixer for 2 hr, 1000 RPM at 37° C., followed by removal of the beads using a DynaMag magnet (Invitrogen, Cat. No. 12321D) and the samples were examined using CD28 specific ELISA.
Varying amounts (0.125-2 μg) of antibodies #1 and #2 were loaded onto tosyl-activated magnetic beads according to the manufacturer's protocol (Thermo Fisher Scientific). The loaded beads were then added to plasma samples from a cancer patient, and the mixture was incubated in a thermomixer at 37° C. for 2 hours at 1000 RPM. The beads were isolated and removed from the plasma with a magnet and the amount of sCD28 remaining in the serum was measured by ELISA.
Antibody #1 was further tested on various cancer samples (melanoma, colorectal and ovarian) and compared to three B7 molecules which are known ligands of CD28. About 1.5 μg of antibody #1, CD80, CD86 and ICOSL were each loaded onto tosyl-activated magnetic beads and the beads were mixed with plasma as before. A colorectal sample (FIG. 16C), as well as two melanoma samples (FIG. 16D-E), an ovarian sample (FIG. 16F) and a sample from a healthy donor (FIG. 16G) were all tested.

The target in assay [6] is T3, mCD28. As to the kind of experiment: CD86 blocking FACS on HEK293 cells stably transfected with human CD28. Type of assay: binding. Conditions: CD86-Fc 5 μg/mL; antibody 20 μg/mL. Here is the method: CD86 blocking FACS—0.5×10^6 HEK293 cells stably transfected with human CD28 were incubated with 5 μg/mL CD86-Fc (R&D systems, Cat. No. 141-B2) without or with anti CD28 antibodies (20 μg/mL) for 30 min in room temperature. Cells were washed and taken for secondary binding using anti-human heavy and light chains antibody conjugated to fluorophore at 1:5000 dilution for 20 min on ice.

T1 sequence (P31041 20-150 limits assumed): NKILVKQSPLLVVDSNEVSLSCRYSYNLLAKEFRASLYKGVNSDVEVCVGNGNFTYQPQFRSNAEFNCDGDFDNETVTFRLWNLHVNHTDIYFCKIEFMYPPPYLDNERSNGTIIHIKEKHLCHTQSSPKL

B1: antibody #2: sCD28 binding (sweeping) antibody; heavy chain SEQ ID NO: 46, light chain SEQ ID NO: 48 (antibody)
heavy: QVQLQQSGAELARPGASVKLSCKASGYTFTSYWMQWIKKRPGQGLEWIGAIYPGDGDTRYTQKFKGKATLTADKSSTTAYMQLSSLASEDSAVYFCARNYRYSSFGYWGQGTLVTVSAAKTTPPSVYPLAPGCGDTTGSSVTLGCLVKGYFPESVTVTWNSGSLSSSVHTFPALLQSGLYTMSSSVTVPSSTWPSQTVTCSVAHPASSTTVDKKLEPSGPISTINPCPPCKECHKCPAPNLEGGPSVFIFPPNIKDVLMISLTPKVTCVVVDVSEDDPDVQISWFVNNVEVHTAQTQTHREDYNSTIRVVSTLPIQHQDWMSGKEFKCKVNNKDLPSPIERTISKIKGLVRAPQVYILPPPAEQLSRKDVSLTCLVVGFNPGDISVEWTSNGHTEENYKDTAPVLDSDGSYFIYSKLNMKTSKWEKTDSFSCNVRHEGLKNYYLKKTISRSPGK
light: DIVMTQSPSSLTVTAGEKVTLSCKSSQSLLNSGNQKNYLTWYQQKPGQPPQLLIYWASTRESGVPDRFTGSGSGTDFTLTISSVQAEDLAVYYCQSDYSYPLTFGAGTKLELKRADAAPTVSIFPPSSEQLTSGGASVVCFLNNFYPKDINVKWKIDGSERQNGVLNSWTDQDSKDSTYSMSSTLTLTKDEYERHNSYTCEATHKTSTSPIVKSFNRNEC
B1: in assay [1], the “binding to mouse CD28” value is reported as “able to bind mouse CD28”. The “IFNγ secretion (agonism)” value in assay [2] is “no effect on IFN secretion”. Besides, in assay [3], the “relationship of signal to concentration” value is reported as “a linear relationship to increasing antibody concentrations over the entire range examined”. In addition, the “binding to sCD28” value in assay [3] (immobilized recombinant human sCD28) was “much stronger binding to sCD28”. Besides, in assay [4], the “binding to mCD28 on the cell surface” value is recorded as “do not bind CD28 on the cell surface”. Further, the “removal of sCD28 from plasma” value in assay [5] is “capable of binding and removing sCD28 from plasma”. Besides, the “CD86 binding to mCD28” value in assay [6] is “none of antibody #1 (FIG. 15B), antibody #2 (FIG. 15C), or antibody #3 (FIG. 15D) blocked binding of CD86 to mCD28”.
